{
  "source": "patent US20090317428A1",
  "binders": {"B1": {"name": "L243 (anti-HLA-DR) (antibody, from another filing, V domains shown)", "VH": "QIQLVQSGPELKKPGETVKISCKASGFTFTNYGMNWVKQAPGKGLKWMGWINTYTREPTYADDFKGRFAFSLETSASTAYLQINNLKNEDTAKYFCARDITAVVPTGFDYWGQGTTLTVSS", "VL": "DIQMTQSPASLSVSVGETVTITCRASENIYSNLAWYRQKQGKSPQLLVFAASNLADGVPSRFSGSGSGTQYSLKINSLQSEDFGDYYCQHFWTTPWAFGGGTNLEIKR"}},
  "molecular_target": "HLA-DR molecules of the human B-lymphoblastoid cell line Awells (HLA-DRB1*0401, HLA-DRB4*0101) (human)",
  "test": "cell-based or functional assay",
  "data": [
    {"binder": "B1", "values": [
      {"measurement": "inhibition of T-helper cell line activation by Awells-Ii-cyclin D1 transfectants", "value": 71.2, "unit": "%"}
    ]}
  ]
}
